Sequences and labels used below:
B1: Axial regulator YABBY 4 (Arabidopsis thaliana (Mouse-ear cress)), Q9LDT3 (parent)
chain: MTKLPNMTTTLNHLFDLPGQICHVQCGFCTTILLVSVPFTSLSMVVTVRCGHCTSLLSVNLMKASFIPLHLLASLSHLDETGKEEVAATDGVEEEAWKVNQEKENSPTTLVSSSDNEDEDVSRVYQVVNKPPEKRQRAPSAYNCFIKEEIRRLKAQNPSMAHKEAFSLAAKNWAHFPPAHNKRAASDQCFCEEDNNAILPCNVFEDHEESNNGFRERKAQRHSIWGKSPFE
partner: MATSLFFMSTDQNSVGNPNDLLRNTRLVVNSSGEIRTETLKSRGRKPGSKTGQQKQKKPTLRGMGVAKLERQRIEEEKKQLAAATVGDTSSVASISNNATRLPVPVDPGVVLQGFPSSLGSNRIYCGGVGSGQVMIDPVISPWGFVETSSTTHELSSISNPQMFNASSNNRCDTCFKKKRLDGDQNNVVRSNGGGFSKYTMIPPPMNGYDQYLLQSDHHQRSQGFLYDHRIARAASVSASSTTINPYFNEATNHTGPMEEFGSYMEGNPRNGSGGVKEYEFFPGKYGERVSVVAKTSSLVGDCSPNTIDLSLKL

Variants of B1 are the subject of this experiment. The note with it: with spl_arath SPL.
With MTKLPNMTTTLNHLFDLPGQICHVQCGFSTTILLVSVPFTSLSMVVTVRCGHCTSLLSVNLMKASFIPLHLLASLSHLDETGKEEVAATDGVEEEAWKVNQEKENSPTTLVSSSDNEDEDVSRVYQVVNKPPEKRQRAPSAYNCFIKEEIRRLKAQNPSMAHKEAFSLAAKNWAHFPPAHNKRAASDQCFCEEDNNAILPCNVFEDHEESNNGFRERKAQRHSIWGKSPFE [C29S], the “effect of a mutation on the interaction” value is recorded as “decreasing interaction”.

The values above are taken from IntAct's records for PubMed 15299139.
